This is an account of results in publication PMC9788986, “Dynamic chromatin accessibility deploys heterotypic cis/trans-acting factors driving stomatal cell-fate commitment” (Nature Plants, 2022).

In one assay the target is T1, His tagged BPC2 (1-279) (A. thaliana, UniProt Q9LDE2 1-279).
T1 chain: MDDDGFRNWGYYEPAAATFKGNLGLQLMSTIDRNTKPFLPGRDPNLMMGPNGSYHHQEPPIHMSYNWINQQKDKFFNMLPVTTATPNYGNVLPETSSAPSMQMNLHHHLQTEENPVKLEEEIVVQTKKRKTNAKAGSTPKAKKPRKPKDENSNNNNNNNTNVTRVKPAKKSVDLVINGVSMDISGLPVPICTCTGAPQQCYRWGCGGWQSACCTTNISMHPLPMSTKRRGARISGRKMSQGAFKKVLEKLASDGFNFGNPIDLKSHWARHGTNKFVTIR
Briefly: BLI. In general terms: BLI is a label-free optical method that tracks binding on a fibre tip over time.

In a further assay the target is T2, His tagged BPC1 (1-283) (A. thaliana, UniProt Q9SKD0 1-283).
T2 chain: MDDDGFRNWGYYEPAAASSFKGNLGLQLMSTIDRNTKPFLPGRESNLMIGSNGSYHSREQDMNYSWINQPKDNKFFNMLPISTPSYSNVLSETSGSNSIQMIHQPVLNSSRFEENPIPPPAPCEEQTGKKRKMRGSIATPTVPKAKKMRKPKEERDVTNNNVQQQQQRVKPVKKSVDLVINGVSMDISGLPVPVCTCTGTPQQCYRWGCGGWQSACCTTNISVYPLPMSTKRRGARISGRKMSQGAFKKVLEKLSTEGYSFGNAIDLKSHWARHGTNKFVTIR
Briefly: BLI.

The target of the next assay is T3, MUTE-SCRM heterodimer (A. thaliana, UniProt Q9M8K6 1-202; Q9LSE2 1-494).
T3 construct: MUTE, Arabidopsis thaliana, residues 1-202, in pET28a; also called SCRM-MUTE heterodimer; source: E. coli BL21, purified (MUTE: Ni-NTA, gel filtration; SCRM: glutathione resin, thrombin, gel filtration); not shown: GST, N-terminal, cleaved
T3 sequence (looked up) 1: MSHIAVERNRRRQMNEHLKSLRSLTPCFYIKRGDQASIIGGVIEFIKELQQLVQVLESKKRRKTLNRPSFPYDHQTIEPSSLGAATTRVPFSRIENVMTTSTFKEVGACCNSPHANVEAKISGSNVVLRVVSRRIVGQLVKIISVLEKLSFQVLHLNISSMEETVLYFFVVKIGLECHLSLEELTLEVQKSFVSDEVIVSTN
T3 sequence (looked up) 2: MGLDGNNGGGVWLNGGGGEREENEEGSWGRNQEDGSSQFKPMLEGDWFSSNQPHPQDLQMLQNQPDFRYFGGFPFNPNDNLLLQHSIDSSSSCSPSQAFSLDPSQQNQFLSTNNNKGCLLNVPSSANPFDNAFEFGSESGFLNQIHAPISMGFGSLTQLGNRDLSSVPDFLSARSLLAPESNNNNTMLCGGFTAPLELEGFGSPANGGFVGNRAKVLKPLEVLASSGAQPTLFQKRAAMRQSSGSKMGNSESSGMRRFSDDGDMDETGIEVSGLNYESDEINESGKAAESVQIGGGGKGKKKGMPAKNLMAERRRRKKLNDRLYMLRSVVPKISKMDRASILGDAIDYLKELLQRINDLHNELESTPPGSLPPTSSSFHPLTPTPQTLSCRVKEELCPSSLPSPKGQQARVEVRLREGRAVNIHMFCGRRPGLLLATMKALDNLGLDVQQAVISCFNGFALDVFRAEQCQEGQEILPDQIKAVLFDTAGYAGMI
Description: BLI; Octet Red96; Ni-NTA probes loaded with 500 nM His tagged BPC1 or BPC2; heterodimer as analyte at seven concentrations (200 to 3.12 nM by the methods); 30 °C; 1× PBS with 0.02% Tween 20; 1:1 model, Kd by steady-state analysis. Particulars: both partners purified.

B1: SPCH-SCRM heterodimer (complex)
chain 1: MQEIIPDFLEECEFVDTSLAGDDLFAILESLEGAGEISPTAASTPKDGTTSSKELVKDQDYENSSPKRKKQRLETRKEEDEEEEDGDGEAEEDNKQDGQQKMSHVTVERNRRKQMNEHLTVLRSLMPCFYVKRGDQASIIGGVVEYISELQQVLQSLEAKKQRKTYAEVLSPRVVPSPRPSPPVLSPRKPPLSPRINHHQIHHHLLLPPISPRTPQPTSPYRAIPPQLPLIPQPPLRSYSSLASCSSLGDPPPYSPASSSSSPSVSSNHESSVINELVANSKSALADVEVKFSGANVLLKTVSHKIPGQVMKIIAALEDLALEILQVNINTVDETMLNSFTIKIGIECQLSAEELAQQIQQTFC
chain 2: T3 sequence (looked up) 2
Consider B1, for which the equilibrium dissociation constant (Kd) (usually the equilibrium constant for the complex coming apart) is 227 nM with His tagged BPC2 (1-279) and 126 nM in the assay with His tagged BPC1 (1-283).

B2: His tagged BPC2 (1-279) (natural protein, A. thaliana, UniProt Q9LDE2 1-279, looked up)
chain: T1 chain
notes: BPC2 (BASIC … 2), Arabidopsis thaliana, residues 1-279, in pET28a; source: E. coli BL21, purified (Ni-NTA, gel filtration on Superdex-200); not shown: His tag, N-terminal, kept
On to B2, for which the Kd with MUTE-SCRM heterodimer worked out at 11 ± 1.6 nM.

B3: His tagged BPC1 (1-283) (natural protein, A. thaliana, UniProt Q9SKD0 1-283, looked up)
chain: T2 chain
notes: BPC1 (BASIC … 1), Arabidopsis thaliana, residues 1-283, in pET28a; source: E. coli BL21, purified (Ni-NTA, gel filtration on Superdex-200); not shown: His tag, N-terminal, kept
B3: in the assay with MUTE-SCRM heterodimer, the Kd amounted to 4.8 ± 1.6 nM.
